The values that follow are results of earlier work, collected in paper PMC3777542.

pKd: −log10 of the molar value.

Data set [1] deals with CD4 cytoplasmic tail (Homo sapiens) (UniProt P01730).
In a further data set the target is Hck SH3 (Homo sapiens) (UniProt P08631).
The target in a further data set is Hck (Homo sapiens) (UniProt P08631).
Data set [2] addresses AP-2 hemicomplex (Homo sapiens) (UniProt O95782). Kind of data set: SPR. In general terms: SPR reads the build-up and loss of mass on a sensor chip optically.
Sequence of UniProt O95782 (O95782 whole entry, chain 1 of 2): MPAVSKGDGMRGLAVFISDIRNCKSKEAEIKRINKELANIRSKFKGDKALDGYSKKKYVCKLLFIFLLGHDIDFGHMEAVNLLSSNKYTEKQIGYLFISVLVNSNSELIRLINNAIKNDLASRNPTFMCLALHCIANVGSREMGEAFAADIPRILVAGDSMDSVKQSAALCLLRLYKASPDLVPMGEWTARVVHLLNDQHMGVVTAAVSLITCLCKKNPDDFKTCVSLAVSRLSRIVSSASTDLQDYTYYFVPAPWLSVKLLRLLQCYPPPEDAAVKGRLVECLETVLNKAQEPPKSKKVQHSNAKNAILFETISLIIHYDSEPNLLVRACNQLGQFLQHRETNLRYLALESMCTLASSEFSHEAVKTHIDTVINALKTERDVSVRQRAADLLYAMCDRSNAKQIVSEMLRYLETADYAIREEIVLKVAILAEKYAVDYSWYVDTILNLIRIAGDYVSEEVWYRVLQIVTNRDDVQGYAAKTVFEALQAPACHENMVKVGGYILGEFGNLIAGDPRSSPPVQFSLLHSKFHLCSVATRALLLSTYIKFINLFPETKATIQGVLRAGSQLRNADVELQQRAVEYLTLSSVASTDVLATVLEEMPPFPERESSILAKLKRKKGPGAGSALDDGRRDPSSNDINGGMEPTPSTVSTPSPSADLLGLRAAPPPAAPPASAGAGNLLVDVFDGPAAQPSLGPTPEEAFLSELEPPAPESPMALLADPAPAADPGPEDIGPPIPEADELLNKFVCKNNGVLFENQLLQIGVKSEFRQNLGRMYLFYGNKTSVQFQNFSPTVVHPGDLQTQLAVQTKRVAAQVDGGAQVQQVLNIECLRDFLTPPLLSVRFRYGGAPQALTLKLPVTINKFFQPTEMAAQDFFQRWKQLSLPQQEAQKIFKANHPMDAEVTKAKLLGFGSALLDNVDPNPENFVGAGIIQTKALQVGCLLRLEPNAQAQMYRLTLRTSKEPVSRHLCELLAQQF
Sequence of UniProt O95782 (B2R4Z4 whole entry, chain 2 of 2, further chain): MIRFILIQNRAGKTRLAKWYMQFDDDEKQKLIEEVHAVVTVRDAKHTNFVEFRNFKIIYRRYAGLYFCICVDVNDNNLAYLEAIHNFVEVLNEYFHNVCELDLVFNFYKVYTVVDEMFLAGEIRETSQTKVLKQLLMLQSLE

In the case of Nef (from UniProt P04324), the pKd (usually the negative decadic logarithm of the Kd, by convention in mol/L) in data set [1] is 6.00; in the data set with Hck SH3 (Homo sapiens), 6.59; in the data set with Hck (Homo sapiens), 6.70; in data set [2], 5.22.
